T1: myofibril associated μ-calpain (Mus musculus, UniProt O35350)
T1 construct: To test whether endogenous calpain in the cardiac muscle contributes to TnT NH2-terminal modification; from tissue
T1 sequence (O35350 1-713): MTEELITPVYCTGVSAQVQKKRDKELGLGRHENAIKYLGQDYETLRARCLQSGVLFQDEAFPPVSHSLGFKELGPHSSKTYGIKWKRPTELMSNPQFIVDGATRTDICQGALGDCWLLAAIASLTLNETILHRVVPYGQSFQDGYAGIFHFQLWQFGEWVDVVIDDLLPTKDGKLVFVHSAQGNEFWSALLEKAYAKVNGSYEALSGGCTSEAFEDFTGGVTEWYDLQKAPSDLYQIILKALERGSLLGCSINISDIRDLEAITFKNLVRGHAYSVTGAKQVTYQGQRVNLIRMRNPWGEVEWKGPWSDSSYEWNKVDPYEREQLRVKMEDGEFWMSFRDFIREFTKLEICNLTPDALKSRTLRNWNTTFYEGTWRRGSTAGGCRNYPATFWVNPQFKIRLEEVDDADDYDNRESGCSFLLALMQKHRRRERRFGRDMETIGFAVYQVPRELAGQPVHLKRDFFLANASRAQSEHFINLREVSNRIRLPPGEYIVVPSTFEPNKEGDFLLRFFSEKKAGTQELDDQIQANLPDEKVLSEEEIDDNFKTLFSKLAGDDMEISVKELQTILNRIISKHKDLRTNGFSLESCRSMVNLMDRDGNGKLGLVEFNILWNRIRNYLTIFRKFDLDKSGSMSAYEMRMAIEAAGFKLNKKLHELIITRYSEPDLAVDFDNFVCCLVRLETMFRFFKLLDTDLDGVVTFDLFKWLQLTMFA
T1 sequence (O88456 1-268 partner): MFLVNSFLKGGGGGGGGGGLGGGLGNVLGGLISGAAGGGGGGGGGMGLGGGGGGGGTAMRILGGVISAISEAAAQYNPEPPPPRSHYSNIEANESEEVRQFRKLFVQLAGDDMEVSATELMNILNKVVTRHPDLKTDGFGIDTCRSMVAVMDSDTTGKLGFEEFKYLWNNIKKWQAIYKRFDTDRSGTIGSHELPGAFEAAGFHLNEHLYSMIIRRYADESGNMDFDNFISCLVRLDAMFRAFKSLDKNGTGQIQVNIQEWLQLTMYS

B1: μ-calpain: calcium activated cysteine protease (Calbiochem) used to treat cTnT, troponin complex and myofibrils (protein, UniProt P07384 2-714, looked up)
Calpain-1 catalytic subunit: SEEIITPVYCTGVSAQVQKQRARELGLGRHENAIKYLGQDYEQLRVRCLQSGTLFRDEAFPPVPQSLGYKDLGPNSSKTYGIKWKRPTELLSNPQFIVDGATRTDICQGALGDCWLLAAIASLTLNDTLLHRVVPHGQSFQNGYAGIFHFQLWQFGEWVDVVVDDLLPIKDGKLVFVHSAEGNEFWSALLEKAYAKVNGSYEALSGGSTSEGFEDFTGGVTEWYELRKAPSDLYQIILKALERGSLLGCSIDISSVLDMEAITFKKLVKGHAYSVTGAKQVNYRGQVVSLIRMRNPWGEVEWTGAWSDSSSEWNNVDPYERDQLRVKMEDGEFWMSFRDFMREFTRLEICNLTPDALKSRTIRKWNTTLYEGTWRRGSTAGGCRNYPATFWVNPQFKIRLDETDDPDDYGDRESGCSFVLALMQKHRRRERRFGRDMETIGFAVYEVPPELVGQPAVHLKRDFFLANASRARSEQFINLREVSTRFRLPPGEYVVVPSTFEPNKEGDFVLRFFSEKSAGTVELDDQIQANLPDEQVLSEEEIDENFKALFRQLAGEDMEISVKELRTILNRIISKHKDLRTKGFSLESCRSMVNLMDRDGNGKLGLVEFNILWNRIRNYLSIFRKFDLDKSGSMSAYEMRMAIESAGFKLNKKLYELIITRYSEPDLAVDFDNFVCCLVRLETMFRFFKTLDTDLDGVVTFDLFKWLQLTMFA

Key:
[1] = biological target: T1, myofibril associated μ-calpain; experiment: Calpain inhibition of cTnT-ND production in TRITON X-100 extracted ventricular muscle strips (Western blot densitometry); assay type: biochemical; settings: 100 μM hydrogen peroxide
Description: (§1) SDS-PAGE and Western blotting. Ventricular muscle tissues or myocytes were homogenized in Laemmli SDS-PAGE sample buffer containing 2% SDS, heated at 80° C. for 5 min, and clarified by centrifugation. Total protein extracts were resolved by 14% Laemmli gel with an acrylamide:bisacrylamide ratio of 180:1 (low cross linker) or by 15% Laemmli gel with an acrylamide:bisacrylamide ratio of 29:1 (high cross linker). The gels were stained with Coomassie Brilliant Blue R250 to reveal the resolved protein bands. Duplicate gels were electrically blotted to nitrocellulose membranes, as described previously (21). After blocking in Tris-buffered saline (TBS) containing 1% bovine serum albumin (BSA), the membrane was incubated with anti-TnT mAbs CT3, 2C8, or polyclonal antibody RATnT. The membranes were then washed with high stringency using TBS containing 0.5% TRITON® X-100 and 0.05% SDS, incubated with alkaline phosphatase-conjugated anti-mouse IgG or anti-rabbit IgG second antibodies (Sigma), washed again, and developed in 5-bromo-4-chloro-3-indolylphosphate/nitro blue tetrazolium substrate solution, as described previously (21).
TRITON® X-100 extraction of ventricular muscle strips. In an ice container, ventricular muscle was cut with a sharp razor blade into fine pieces approximately the size of isolated trabeculae. The muscle strips were washed in relaxing solution containing […], 2 mM MgCl2, 2 mM EGTA, 10 mM Tris, 0.5 mM DTT, 0.1 mM PMSF and 2 mM Na4P2O7. After centrifugation at 2,800×g at 4° C. for 15 min, the pellet was skinned in relaxing solution plus 0.5% (w/w) TRITON® X-100 at 4° C. with rotation for 10 min. After centrifugation at 14,000×g at 4° C. for 20 min, the pellet was suspended in relaxing solution without TRITON® X-100 and incubated at 37° C. with rotation. Samples were collected at a series of time points for SDS-PAGE and Western blotting to examine the modifications of cTnT and other myofibrillar proteins.
Calpain inhibition. To test whether endogenous calpain in the cardiac muscle contributes to TnT NH2-terminal modification, several different calpain inhibitors were applied to the TRITON® X-100 extraction procedure. […] TRITON® X-100 treatment of mouse ventricular muscle strips was carried out as above in the presence or absence of 100 μM hydrogen peroxide and the effect on cTnT modification was examined by Western blotting.
The effects of two cell membrane-permissible nonpeptide calpain inhibitors, PD 150606 and PD 151746 (Calbiochem), were also tested. […] PD 150606 and […] were separately added to the relaxing solution before TRITON® X-100 treatment and incubated with the minced ventricular muscle at 4° C. for 10 minutes to allow the inhibitor to penetrate cell membrane and bind to calpain. After TRITON® X-100 extraction, samples were collected for SDS-PAGE and Western blotting to examine the effect on cTnT modification.

bovine cardiac TnI = biological target: T2, bovine cardiac TnI (Bos taurus, UniProt P08057); experiment: ELISA solid phase protein binding of immobilized cTnT to TnI; settings: for EC50: immobilized mouse cTnT, mean ± SD, read-out: concentration of TnI required to reach 50% of maximum binding; for change in binding to TnI on decrease of pH: pH from 7.0 to 6.2
T2 construct: Bovine cardiac TnI was purified from ventricular muscle as described previously (19); from tissue; host or cells: bovine ventricular muscle
Description: (§2) Protein binding assays. Enzyme-linked immunosorbant assay (ELISA) solid phase protein binding experiments (21) were performed to investigate the interactions of the NH2-terminal truncated cTnT with TnI and tropomyosin. Purified intact and NH2-terminal truncated mouse cTnT or BSA control were dissolved at 5 μg/mL in Buffer A (0.1 M KCl, 3 mM MgCl2, 20 mM PIPES, pH 7.5) and coated onto 96-well microtiter plates by incubation at 4° C. overnight. After washes with Buffer T (Buffer A containing 0.05% polyoxyethylene 20 (TWEEN®20)) at pH 7.5 to remove the unbound protein, the plates were blocked with Buffer T at pH 7.0 or 6.2 containing 1% BSA. The immobilized cTnT was incubated with serial dilutions of bovine cardiac TnI or rabbit α-tropomyosin in Buffer T (at the blocking pH) containing 0.1% BSA at room temperature for 2 hours. After one wash with Buffer T of the blocking pH and two washes with Buffer T at pH 7.0, the bound TnI or tropomyosin was quantified via incubation at pH 7.0 and room temperature for 1 hour with the anti-TnI mAb TnI-1 (46) or an anti-tropomyosin mAb CH1 (47), respectively. The plates were then processed by a standard ELISA procedure, including pH 7.0 Buffer T washes, horse radish peroxidase-conjugated anti-mouse immunoglobulin second antibody (Sigma) incubation, and H2O2/2,2′-azinobis-(3-ethylbenzthiazolinesulfonic acid) substrate reaction (21). A405 nm of each assay well was recorded at a series of time points by an automated microtiter plate reader (BioRad Benchmark). The A405 nm values in the linear course of the color development were used to plot the protein binding affinity curves. All experiments were done in triplicate.

rabbit α-tropomyosin = biological target: T3, rabbit α-tropomyosin (Oryctolagus cuniculus, UniProt P58772); experiment: ELISA solid phase protein binding of immobilized cTnT to tropomyosin; settings: for EC50: immobilized mouse cTnT, mean ± SD, read-out: concentration of tropomyosin for 50% maximum binding; for change in binding to tropomyosin on decrease of pH: pH from 7.0 to 6.2
T3 construct: Rabbit α-tropomyosin was purified from ventricular muscle as described previously (44); from tissue; host or cells: rabbit ventricular muscle
Description: as §2

[2] = test system: cTnT in bovine cardiac myofibrils; experiment: μ-Calpain treatment of cardiac myofibrils (mAb CT3 Western blot densitometry); assay type: biochemical; settings: 20 U/ml μ-calpain
Description: as §1
Mu-Calpain treatment of cTnT. […] The samples were analyzed by SDS-PAGE and Western blotting as described above. […]

Row | Molecule | cTnT-ND production reduced to ([1]; TRITON X-100 extracted exon 7-deleted transgenic mouse ventricular muscle strips) [%] | decrease in cTnT-ND72-291 ([1]; TRITON X-100 treated mouse ventricular muscle strips) | maximum binding to TnI, compared with intact cTnT (bovine cardiac TnI; FIG. 12A insert) | EC50 (bovine cardiac TnI) [nM] | change in binding to TnI on decrease of pH (bovine cardiac TnI) | level of maximum binding to tropomyosin, compared with intact cTnT (rabbit α-tropomyosin; FIG. 12B insert) | EC50 (rabbit α-tropomyosin) [nM] | change in binding to tropomyosin on decrease of pH (rabbit α-tropomyosin) | NH2-terminal truncated cTnT (cTnT ND) as share of total cTnT (truncated plus intact) ([2]; 0% at 0 U/ml) [%] | intact cTnT remaining ([2]; 100% at 0 U/ml) [%]
1 | OO [hydrogen peroxide] | 65 | approximately 35% |  |  |  |  |  |  |  | 
2 | cTnT ND: NH2-terminal truncated mouse cardiac troponin T lacking amino acids 1-71, expressed in E. coli |  |  | No significant difference | 8.73 ± 1.15 | did not result in significant change | not significantly changed | 9.73 ± 0.185 | did not result in significant change |  | 
3 | intact cTnT: intact mouse cardiac troponin T (TnT4) expressed in E. coli |  |  |  | 15.3 ± 1.36 | did not result in significant change |  | 13.5 ± 1.38 | did not result in significant change |  | 
4 | B1 |  |  |  |  |  |  |  |  | 98 | 1.5
